Reference: publication PMC2651628

Experiments:
CD44-CFP = CD44-CFP (UniProt P16070); test: FRET or BRET; u-adFRET (acceptor-depletion FRET with linear spectral unmixing) in U251MG cells co-transfected with YFP (Venus) acceptor and CFP donor fusions, fixed in 4% paraformaldehyde; FRET efficiency by region of the cell (cytosol, peripheral, focal adhesion)
CFP-vinculin = CFP-vinculin (UniProt P18206); test: as above
UniProt P18206, sequence (P18206 whole entry): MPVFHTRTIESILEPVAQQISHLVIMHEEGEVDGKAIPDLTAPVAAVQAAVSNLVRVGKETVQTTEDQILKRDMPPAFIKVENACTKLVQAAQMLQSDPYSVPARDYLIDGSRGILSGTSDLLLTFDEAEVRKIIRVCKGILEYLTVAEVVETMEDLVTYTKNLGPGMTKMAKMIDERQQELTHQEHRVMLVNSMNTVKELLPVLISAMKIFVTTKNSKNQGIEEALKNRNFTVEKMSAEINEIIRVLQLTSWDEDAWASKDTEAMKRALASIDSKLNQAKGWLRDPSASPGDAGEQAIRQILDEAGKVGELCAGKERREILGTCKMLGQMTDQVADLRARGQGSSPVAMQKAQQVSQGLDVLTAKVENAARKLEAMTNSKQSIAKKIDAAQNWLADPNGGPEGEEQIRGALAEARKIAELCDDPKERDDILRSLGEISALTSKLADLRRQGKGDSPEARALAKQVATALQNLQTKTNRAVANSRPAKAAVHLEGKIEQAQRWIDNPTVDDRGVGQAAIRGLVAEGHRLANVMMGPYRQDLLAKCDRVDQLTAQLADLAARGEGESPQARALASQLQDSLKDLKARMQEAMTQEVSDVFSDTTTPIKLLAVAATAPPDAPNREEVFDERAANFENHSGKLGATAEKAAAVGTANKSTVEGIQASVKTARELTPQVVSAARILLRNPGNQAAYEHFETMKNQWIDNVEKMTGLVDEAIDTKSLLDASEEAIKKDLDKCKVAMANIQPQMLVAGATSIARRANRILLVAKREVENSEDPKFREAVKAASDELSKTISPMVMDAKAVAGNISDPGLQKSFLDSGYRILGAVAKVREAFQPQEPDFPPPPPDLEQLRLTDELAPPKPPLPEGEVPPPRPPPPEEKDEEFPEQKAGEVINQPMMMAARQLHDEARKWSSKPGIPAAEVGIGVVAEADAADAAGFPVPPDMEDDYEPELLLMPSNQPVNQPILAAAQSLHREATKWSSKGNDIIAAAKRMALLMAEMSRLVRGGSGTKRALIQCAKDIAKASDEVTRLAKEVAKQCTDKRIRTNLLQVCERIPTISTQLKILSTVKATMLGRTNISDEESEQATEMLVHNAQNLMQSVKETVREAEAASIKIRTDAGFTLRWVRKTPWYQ

UniProt P16070, sequence (P16070 21-742): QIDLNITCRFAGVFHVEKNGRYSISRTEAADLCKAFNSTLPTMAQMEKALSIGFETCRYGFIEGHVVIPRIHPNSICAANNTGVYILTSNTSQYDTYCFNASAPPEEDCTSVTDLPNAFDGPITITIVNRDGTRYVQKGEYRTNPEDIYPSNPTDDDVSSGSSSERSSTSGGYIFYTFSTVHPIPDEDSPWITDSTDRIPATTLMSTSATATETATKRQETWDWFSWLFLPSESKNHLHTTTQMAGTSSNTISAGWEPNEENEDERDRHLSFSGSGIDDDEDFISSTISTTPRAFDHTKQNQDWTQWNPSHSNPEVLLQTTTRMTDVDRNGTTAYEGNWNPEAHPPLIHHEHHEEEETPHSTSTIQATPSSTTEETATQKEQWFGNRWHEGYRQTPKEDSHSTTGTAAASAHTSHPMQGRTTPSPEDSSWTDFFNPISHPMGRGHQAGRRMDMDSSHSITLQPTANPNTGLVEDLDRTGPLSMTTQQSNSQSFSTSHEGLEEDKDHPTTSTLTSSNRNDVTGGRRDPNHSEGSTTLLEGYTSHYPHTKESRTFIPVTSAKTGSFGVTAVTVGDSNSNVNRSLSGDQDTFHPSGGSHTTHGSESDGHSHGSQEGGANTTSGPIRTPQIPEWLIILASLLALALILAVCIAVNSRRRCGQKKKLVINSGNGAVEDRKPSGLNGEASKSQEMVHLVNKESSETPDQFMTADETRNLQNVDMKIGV

**Q.** “YFP-hMena (human Mena fused to monomeric Venus) (from UniProt Q8N8S7 1-591) (natural protein)” was tested. Which FRET efficiency (cytosol) (CD44-CFP) did it give?
**A.** -7

**Q.** What about the FRET efficiency (peripheral) (CD44-CFP) of the same substance?
**A.** -2

**Q.** What about the FRET efficiency (FA, focal adhesion) (CFP-vinculin) of the same substance?
**A.** 19
